From US11945858B2, “Antibodies and antibody fragments against HNAV1.7 channel and their use in pain and cancer indications” (NATIONAL RESEARCH COUNCIL OF CANADA, priority 2018, dated 2024)
Where “and” joins values, the source holds several entries; their conditions need not be identical. Equal values may be shown once.

B1: DI-4: VHH from FC5DIE3IR llama immune library; SEQ ID NO: 47 (protein)
VHH: QVQLVESGGGLVQPGGSLRLSCAASGFTFSNYWMYWVRQAPGKGLERVSSIYISGGNTYYADSVKGRFTISRDNAKNTLYLQMNSLKSEDTAVYYCVKGDTFGGMDYWGKGTQVTVSS
modifications: DI-4
B2: DI-48: VHH from FC5DIE3IR llama immune library; SEQ ID NO: 59 (protein)
VHH: QAQVQLVESGGGLVQAGGSLRLSCAASGRTFSTYVMGWFRQTPGKEREFVAGFSWSGDYAIYVNSVKGRFTISRDNAKNTVYLQMNSLRPEDTAVYYCAARQRGGYSGRSYYTGRNDYEYWGQGTQVTVSS
modifications: DI-48
B3: DI-16: VHH from FC5DIE3IR llama immune library; SEQ ID NO: 49; clone DI-11 has identical sequence (protein)
VHH: QAQVQLVESGGGLVQAGGSLRLSCAASGRTVSSYTMGWFRQAPGKERRFVATVNSSGRGTHYADSVKGRFTISRDNAKNTVYLQMNSLKPEDTAVYYCAAAPYPDGSLGPGYDYWGQGTQVTVSS
modifications: DI-16
B4: DI-28: VHH from FC5DIE3IR llama immune library; SEQ ID NO: 54 (protein)
VHH: QAQVQLVESGGGLVQAGGSLRLSCAASGRTFSSSGMGWFRQAPGKDRELVAGISWSGDSAYYANSVAGRFTISRDNINNTVYLQMNSLKPEDTAVYYCAARQGGRNYATSPREYDYWGQGTQVTVSS
modifications: DI-28

Tests used:
[1] = tested on: CFA-induced thermal hyperalgesia; test: Hargreaves Model of Hyperalgesia in rats; type: in vivo, rat
Protocol: Hargreaves Model of Hyperalgesia in rats. Rats aged 4-6 weeks (weight range, 180-220 g) were used for intraplantar (ipl) administrations of various antibodies and evaluation of their efficacy in the Hargreaves model of inflammatory pain. Chronic inflammatory pain is induced by injecting a low volume (50 μl) of complete Freund's adjuvant (CFA; heat-killed M. tuberculosis—Sigma, St. Louis, Mo.—suspended in oil:saline 2:1 emulsion) into the right hind paw. The paw withdrawal latency in response to the application of a radiant stimulus onto the plantar surface of both right and left paw was measured using the plantar Analgesia Meter equipment for paw stimulation (IITC Life Science, Woodland Hills, Calif.). The time taken by the animal to respond by licking or flicking its paw is interpreted as positive response (paw withdrawal latency). After 48 h of the CFA injection, the baseline for latency paw withdrawal was measured and the mAbs tested. […] A cut-off time (20 sec) is established at the end of which the heat source shuts off automatically to avoid tissue damage. Animals were kept (randomized) one per cage and staff performing pain experiments are blinded to the content of injectable compounds. Percentage of maximum possible effect (% MPE) was calculated using the formula % MPE=(Test Latency−Baseline Latency)×100/(Cut-off−Baseline Latency).

[2] = tested on: OD1-evoked Nav1.7-mediated spontaneous pain behaviours; type: in vivo, mouse; details: 100 μg, injected 60 minutes prior to OD1; 20 min after the injection
FC5DIE3IR = molecular target: T1, FC5DIE3IR (Homo sapiens, UniProt Q15858); test: Surface Plasmon Resonance for VHH antibodies, immobilized FC5DIE3IR; type: binding; details: for Rmax (RU) / Kd / ka / kd: immobilized FC5DIE3IR; for ka / kd: 25 C
T1 construct: The supernatant was collected and loaded on a 5 ml MabSelect™ SuRe™ column; made in house; host or cells: CHO-3E7 (transient, pTT5 vector), purified from supernatant
Protocol: (§1) Surface Plasmon Resonance for VHH antibodies. For SPR experiments, IMAC-purified VHHs DI-D, DI-4, DI-16, DI-28 and DI-48 were passed through a Superdex 75 (GE Healthcare) column for SEC purification in HBS-EP+buffer (10 mM HEPES, pH 7.4, containing 150 mM NaCl, 3 mM EDTA and 0.05% P20), connected to an AKTAPurifier (GE Healthcare) at a flow rate of 1 ml/min. Monomeric VHH fractions were collected and protein concentration determined by measuring A280 measurement. Using a Biacore T200 instrument (GE Healthcare), approximately 500-1000 RUs of FC5DIE3IR, FC5 and an irrelevant VHH (2A3-H4) were immobilized on a CM5 Series S sensor chip (GE Healthcare) at pH 4.0 using standard amine coupling according to the manufacturer's instructions (GE Healthcare). […] Surfaces were regenerated by washing with a 120 s pulse of 10 mM glycine pH 1.5. Data were analyzed with Biacore T200 Software v 3.0 and affinities determined using steady state binding or a 1:1 binding model.

FC5 = test: Surface Plasmon Resonance for VHH antibodies, immobilized FC5; type: binding; details: SPR; 25 C
Protocol: as §1

2A3-H4 = test: Surface Plasmon Resonance for VHH antibodies, immobilized irrelevant VHH 2A3-H4; type: binding; details: SPR; 25 C
Protocol: as §1

Chain of FC5 (as listed by the source): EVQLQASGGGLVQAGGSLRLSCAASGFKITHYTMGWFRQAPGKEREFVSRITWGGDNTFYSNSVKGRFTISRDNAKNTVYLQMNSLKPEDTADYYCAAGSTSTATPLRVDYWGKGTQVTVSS

Row | Molecule | Rmax (RU) (FC5DIE3IR) | Binding to immobilized FC5 (comment, in words) (FC5) | Binding to immobilized 2A3-H4 (comment, in words) (2A3-H4) | Kd (FC5DIE3IR) [nM] | ka (FC5DIE3IR) [M⁻¹ s⁻¹] | kd (FC5DIE3IR) [s⁻¹] | also measured
1 | TLESEEDFRKYFYYLEGSKDALLCGFSTDS (Peptide #2 = 30 amino acid sequence located on loop3 of the D1 domain of the Nav1.7 polypeptide) [P2] | – | – | – | – | – | – | Latency paw withdrawal time ([1]; peptide 375 μg co-injected with 3A8 75 μg, intraplantar (FIG. 18)): 6.76 ± 0.32 s; 3A8-induced reversal of hyperalgesia (% MPE) ([1]; peptide 375 μg co-injected with 3A8 75 μg, intraplantar, 4 h): 13.49%±2.62
2 | CC(=O)Nc1cccc(Nc2ncnc(N3CCC(OCc4ccc(OC(F)(F)F)cc4)CC3)n2)c1C [TC-N1752, reference compound] | – | – | – | – | – | – | Percentage of effect after injection (on left paw withdrawal) ([1]; 100 μg intraplantar, 0 h): 0%; Latency paw withdrawal ([1]; 100 μg intraplantar, 1 h): 8.15 ± 1.6 s and 8.15 ± 2.60 s; Percentage of effect after injection (on left paw withdrawal) ([1]; 100 μg intraplantar, 1 h): 37.01%; Latency paw withdrawal ([1]; 100 μg intraplantar, 2 h): 11.17 ± 1.19 s; Percentage of effect after injection (on left paw withdrawal) ([1]; 100 μg intraplantar, 2 h): 44.77%; Latency paw withdrawal ([1]; 100 μg intraplantar, 4 h): 11.90 ± 0.99 s; Percentage of effect after injection (on left paw withdrawal) ([1]; 100 μg intraplantar, 4 h): 49.05%; Percentage of maximum possible effect (% MPE) ([1]; 100 μg intraplantar, 4 h (FIG. 27B)): 46.47%±7.14; Time spent in pain behaviors (saline plus OD1 = 100%) [2]: 51.62%±4.85
3 | B1 | 469.2 | No binding | Very low non- | – | – | – | –
4 | B2 | – | No binding | Very low | – | – | – | Binding to immobilized FC5DIE3IR (comment, in words) (FC5DIE3IR; SPR): Low affinity,
5 | B3 | 317.9 | No binding | No binding | 4.3 | 619000 | 0.00266 | –
6 | B4 | 318.3 | No binding | No binding | 4.4 | 461000 | 0.00205 | –
